The target in assay [1] is PYY_helicar (helicar motif engineered PYY). Briefly: SEC-MALLS.
The target is the same in assay [2]. Description: column binding [Kd]; method not stated.
Assay [3] concerns the target T1, Ac-PYY(PEG3-Dig) (N-terminal acetyl; Lys 2 side chain carries PEG3-digoxigenin-3-carboxymethyl; Pqa at position 3; N-methyl-Arg at position 14; C-terminal amide).
T1 construct: also called DIG-PYY; Digoxigenin-PYY(3-36) conjugate
T1 peptide: IKXRHYLNWVTRQXY
Description: size exclusion chromatography and SEC-MALLS; binding through digoxigenin.

Two molecules from patent US20160324984A1 (published 2016) can be followed below.

Sequence of PYY_helicar (helicar motif engineered PYY) (peptide, as listed by the source, change not shown): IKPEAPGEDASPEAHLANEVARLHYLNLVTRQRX

B1: anti-helicar motif amino acid sequence antibody (0019) (antibody, V domains shown)
V domain 1: QAVVTQEPSLTVSPGGTVTLTCGSSTGAVTTSNYASWVQQKPGQAFTGLIGGTNNRAPWTPARFSGSLLGGKAALTLSGAQPEDEAEYYCALWYSNHWVFGGGTKLTVL
V domain 2: DAVVTQESALTTSPGETVTLTCRSSTGAVTTSNYASWVQEKPDHLFTGLIGGTNNRAPGVPARFSGSLIGDKAALTITGAQTEDEAIYFCALWYSNHWVFGGGTKLTVL
In turn, B1 gave a stoichiometry of the complex (peptides on one bivalent antibody) (peptides per antibody) in assay [1] of 1.6. The molecule further displayed a Kd in assay [2] of 12 nM.

B2: murine anti-digoxigenin antibody (hybridoma-derived) (antibody, mouse IgG1, V domains shown)
VH: EVQLVESGGGLVKPGGSLKLSCAVSGFTFSDYAMSWIRQTPENRLEWVASINIGATYAYYPDSVKGRFTISRDNAKNTLFLQMSSLGSEDTAMYYCARPGSPYEYDKAYYSMAYWGPGTSVTVSS
VL: DVQMTQSTSSLSASLGDRVTISCRASQDIKNYLNWYQQKPGGTVKLLIYYSSTLLSGVPSRFSGRGSGTDFSLTITNLEREDIATYFCQQSITLPPTFGGGTKLEIK
Regarding B2, in assay [3], the binding result was “binds”.

For orientation: Kd means the equilibrium constant for the complex coming apart. Higher therefore signals weaker binding.
